Test results reported in US20210356479A1 (BLOODWORKS, published 2021).
Substitutions are numbered along the chain they refer to. Blank lines part the entries; values can stand above or below the binder they belong to.

What was measured:
[1] = target: T1, human Kell glycoprotein, K form (KEL1) (human, UniProt P23276 1-732); assay: flow cytometry on human K+k+ RBCs, detected with polyclonal anti-IgG
T1 construct: whole, on cells; On human K/K or K+k+ RBCs and on RBCs of K transgenic mice; also called K antigen; K variant
T1 sequence (looked up): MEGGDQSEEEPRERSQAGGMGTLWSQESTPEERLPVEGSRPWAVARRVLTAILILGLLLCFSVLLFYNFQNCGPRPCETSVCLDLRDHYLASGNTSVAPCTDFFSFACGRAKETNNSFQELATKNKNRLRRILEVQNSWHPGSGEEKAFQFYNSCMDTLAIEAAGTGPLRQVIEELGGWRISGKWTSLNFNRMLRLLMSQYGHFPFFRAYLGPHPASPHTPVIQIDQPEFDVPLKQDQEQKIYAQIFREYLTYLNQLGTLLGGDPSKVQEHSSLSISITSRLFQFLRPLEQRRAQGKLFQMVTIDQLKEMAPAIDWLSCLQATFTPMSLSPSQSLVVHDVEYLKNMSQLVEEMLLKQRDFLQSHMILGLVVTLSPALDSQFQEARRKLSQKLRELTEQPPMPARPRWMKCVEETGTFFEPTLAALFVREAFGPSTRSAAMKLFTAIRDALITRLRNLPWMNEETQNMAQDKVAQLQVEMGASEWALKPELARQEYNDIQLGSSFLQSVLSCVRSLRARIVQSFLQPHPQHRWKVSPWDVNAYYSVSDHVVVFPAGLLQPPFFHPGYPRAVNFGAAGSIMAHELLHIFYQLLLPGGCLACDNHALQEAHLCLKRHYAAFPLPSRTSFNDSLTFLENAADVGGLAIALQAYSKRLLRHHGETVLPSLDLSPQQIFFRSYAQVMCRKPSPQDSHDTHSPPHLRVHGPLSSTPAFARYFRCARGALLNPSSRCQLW
Method: Flow cytometry consisted of incubating test RBCs with PUMA 1 variants, followed by the anti-IgG being evaluated, followed by a detection reagent. Test RBCs included RBCs from K mice, wild-type mice, and reagent RBCs from humans with the phenotype of (K+k+) or (K−k+). Test RBCs were resuspended in 50 microliters of supernatants of PUMA 1 isoallotypes; in some cases a 1/10 dilution in phosphate buffered saline (PBS) was used. For purified IgG1-IgG4 PUMA 1, the antibodies were diluted in PBS at the indicated concentrations. The tested anti-IgG reagents were used undiluted. Detection reagents consisted of donkey anti-rabbit conjugated to phycoerythrin at a 1/200 dilution (Affymetrix cat #12-4739-81, Santa Clara, Calif.), goat anti-mouse IgM conjugated to allophycocyanin at a 1/100 dilution (BD Biosciences, cat #550826, San Jose, Calif.), and goat anti-mouse Igs conjugated to allophycocyanin at a 1/100 dilution (SouthernBiotech cat #1020-11s, Birmingham, Ala.). All anti-IgG subclass antibodies were conjugated to phycoerythrin, were purchased from SouthernBiotech (catalog numbers 9056-09, 9070-09, 9210-09, 9200-09), and were used at a dilution of 1.200. All incubations were performed for 30 min at room temperature, followed by three washes with PBS. All flow cytometry was performed on an Accuri 4 color cytometer (BD biosciences, San Jose Calif.) and all data was analyzed with Flo-Jo version 10.
To assess the sensitivity of commercially available anti-IgG preparations for different human IgG subclasses bound to RBCs, K+k+ RBCs were first incubated with PUMA 1 of the different human IgG subclasses, followed by incubation with anti-IgG. Treated RBCs were then stained with a fluorescently labeled antibody specific for the species in which the anti-IgG was generated (and non-reactive with human IgG). For each anti-IgG, the same secondary antibody was used to detect binding of the anti-IgG to each human PUMA 1 IgG subclass. To assess relative sensitivity, titrations of each PUMA 1 IgG subclass were carried out and samples were analyzed by flow cytometry using mean fluorescent intensity (MFI) to quantify staining (FIGS. 28A, 28B).

[2] = target: T2, human Kell glycoprotein, k form (KEL2) (human, UniProt P23276 1-732); assay: flow cytometry on human K-k+ RBCs
T2 construct: whole, on cells; On human k/k or K-k+ RBCs; also called k antigen
T2 sequence (looked up): T1 sequence (looked up) with M193T

binding result [1]: binds | binding result [2]: no binding
B2: PUMA 1 human IgG2-02 isoallotype (antibody)
heavy: EVQLQQSGPELVKPGASVKMSCKASGYTFTDYYMKWVKQSHGKSLEWIGDLNPNNGDTFYNQKFKGKATLTVDKSSSTAYIQLNSLTSEDSAVYYCAREAGSSFGSSCNYWGQGTTLTVS
light: SVVMTQTPKFLLVSAGDRVTITCKASQTVSKDVAWYQQQPGQSPKLLIYYASNRYTGVPDRFTGSGYGTDFTFTISTVQAEDLAVYFCQQDYSSPYTFGGGTKLEIK
notes: Isoallotype named in CLM-00007; not shown: human IgG2 heavy chain constant region, isoallotype IGHG2*02; human kappa light chain constant region (vector pFUSE2-CLIg-hk)

binding result [1]: binds | binding result [2]: no binding
B6: PUMA 1 human IgG3-03 isoallotype (antibody)
heavy: B2 heavy
light: B2 light
notes: also called PUMA1-IgG3-03; not shown: human kappa light chain constant region (vector pFUSE2-CLIg-hk)

binding result [1]: binds | binding result [2]: no binding
B11: PUMA 1 human IgG1-05 isoallotype (antibody)
heavy: B2 heavy
light: B2 light
notes: Isoallotype named in CLM-00007; not shown: human IgG1 heavy chain constant region, isoallotype IGHG1*05; human kappa light chain constant region (vector pFUSE2-CLIg-hk)

binding result [2]: no binding
B13: PUMA 1 human IgG1 (canonical, isoallotype IgG1-01) (antibody)
heavy: not shown
light: B2 light
notes: also called PUMA1-IgG1; PUMA 1 IgG1; not shown: human kappa light chain constant region (vector pFUSE2-CLIg-hk)

binding result [1]: binds | binding result [2]: no binding
B14: PUMA 1 human IgG1-07 isoallotype (antibody)
heavy: B2 heavy
light: B2 light
notes: Isoallotype named in CLM-00007; not shown: human IgG1 heavy chain constant region, isoallotype IGHG1*07; human kappa light chain constant region (vector pFUSE2-CLIg-hk)

binding result [1]: binds | binding result [2]: no binding
B15: PUMA 1 human IgG1-04v2 isoallotype (antibody)
heavy: B2 heavy
light: B2 light
notes: Isoallotype named in CLM-00007; also called IGHG1*04v2; not shown: human IgG1 heavy chain constant region, isoallotype IGHG1*04v2; human kappa light chain constant region (vector pFUSE2-CLIg-hk)

binding result [1]: binds | binding result [2]: no binding
B16: PUMA 1 human IgG1-08 isoallotype (antibody)
heavy: B2 heavy
light: B2 light
notes: Isoallotype named in CLM-00007; not shown: human IgG1 heavy chain constant region, isoallotype IGHG1*08; human kappa light chain constant region (vector pFUSE2-CLIg-hk)

binding result [2]: no binding
B17: PUMA 1 human IgG2 (canonical, isoallotype IgG2-01) (antibody)
heavy: EVQLQQSGPELVKPGASVKMSCKASGYTFTDYYMKWVKQSHGKSLEWIGDLNPNNGDTFYNQKFKGKATLTVDKSSSTAYIQLNSLTSEDSAVYYCAREAGSSFGSSCNYWGQGTTLTVSASTKGPSVFPLAPCSRSTSESTAALGCLVKDYFPEPVTVSWNSGALTSGVHTFPAVLQSSGLYSLSSVVTVPSSNFGTQTYTCNVDHKPSNTKVDKTVERKCCVECPPCPAPPVAGPSVFLFPPKPKDTLMISRTPEVTCVVVDVSHEDPEVQFNWYVDGVEVHNAKTKPREEQFNSTFRVVSVLTVVHQDWLNGKEYKCKVSNKGLPAPIEKTISKTKGQPREPQVYTLPPSREEMTKNQVSLTCLVKGFYPSDIAVEWESNGQPENNYKTTPPMLDSDGSFFLYSKLTVDKSRWQQGNVFSCSVMHEALHNHYTQKSLSLSPGK
light: B2 light
notes: also called PUMA1-IgG2; PUMA 1 IgG2; not shown: human kappa light chain constant region (vector pFUSE2-CLIg-hk)

The next lines start with the binder.

B1: PUMA 1 human IgG1-03 isoallotype (antibody)
heavy: B2 heavy
light: B2 light
notes: Isoallotype named in CLM-00007; not shown: human IgG1 heavy chain constant region, isoallotype IGHG1*03; human kappa light chain constant region (vector pFUSE2-CLIg-hk)
binding result [1]: binds | binding result [2]: no binding

B3: PUMA 1 human IgG1-01v2 isoallotype (antibody)
heavy: B2 heavy
light: B2 light
notes: Isoallotype named in CLM-00007; also called IGHG1*01v2; not shown: human IgG1 heavy chain constant region, isoallotype IGHG1*01v2; human kappa light chain constant region (vector pFUSE2-CLIg-hk)
binding result [1]: binds | binding result [2]: no binding

B4: PUMA 1 human IgG3-04 isoallotype (antibody)
heavy: B2 heavy
light: B2 light
notes: Isoallotype named in CLM-00007; not shown: human IgG3 heavy chain constant region, isoallotype IGHG3*04; human kappa light chain constant region (vector pFUSE2-CLIg-hk)
binding result [1]: binds | binding result [2]: no binding

B5: PUMA 1 human IgG3-08 isoallotype (antibody)
heavy: B2 heavy
light: B2 light
notes: Isoallotype named in CLM-00007; not shown: human IgG3 heavy chain constant region, isoallotype IGHG3*08; human kappa light chain constant region (vector pFUSE2-CLIg-hk)
binding result [1]: binds | binding result [2]: no binding

B7: PUMA 1 human IgG4 (canonical, isoallotype IgG4-01) (antibody)
heavy: EVQLQQSGPELVKPGASVKMSCKASGYTFTDYYMKWVKQSHGKSLEWIGDLNPNNGDTFYNQKFKGKATLTVDKSSSTAYIQLNSLTSEDSAVYYCAREAGSSFGSSCNYWGQGTTLTVSASTKGPSVFPLAPCSRSTSESTAALGCLVKDYFPEPVTVSWNSGALTSGVHTFPAVLQSSGLYSLSSVVTVPSSSLGTKTYTCNVDHKPSNTKVDKRVESKYGPPCPSCPAPEFLGGPSVFLFPPKPKDTLMISRTPEVTCVVVDVSQEDPEVQFNWYVDGVEVHNAKTKPREEQFNSTYRVVSVLTVLHQDWLNGKEYKCKVSNKGLPSSIEKTISKAKGQPREPQVYTLPPSQEEMTKNQVSLTCLVKGFYPSDIAVEWESNGQPENNYKTTPPVLDSDGSFFLYSRLTVDKSRWQEGNVFSCSVMHEALHNHYTQKSLSLSPGK
light: B2 light
notes: also called PUMA1-IgG4; PUMA 1 IgG4; not shown: human kappa light chain constant region (vector pFUSE2-CLIg-hk)
binding result [2]: no binding

B8: PUMA 1 human IgG3 (canonical, isoallotype IgG3-01) (antibody)
heavy: EVQLQQSGPELVKPGASVKMSCKASGYTFTDYYMKWVKQSHGKSLEWIGDLNPNNGDTFYNQKFKGKATLTVDKSSSTAYIQLNSLTSEDSAVYYCAREAGSSFGSSCNYWGQGTTLTVSASTKGPSVFPLAPCSRSTSGGTAALGCLVKDYFPEPVTVSWNSGALTSGVHTFPAVLQSSGLYSLSSVVTVPSSSLGTQTYTCNVNHKPSNTKVDKRVELKTPLGDTTHTCPRCPEPKSCDTPPPCPRCPEPKSCDTPPPCPRCPEPKSCDTPPPCPRCPAPELLGGPSVFLFPPKPKDTLMISRTPEVTCVVVDVSHEDPEVQFKWYVDGVEVHNAKTKPREEQYNSTFRVVSVLTVLHQDWLNGKEYKCKVSNKALPAPIEKTISKTKGQPREPQVYTLPPSREEMTKNQVSLTCLVKGFYPSDIAVEWESSGQPENNYNTTPPMLDSDGSFFLYSKLTVDKSRWQQGNIFSCSVMHEALHNRFTQKSLSLSPGK
light: B2 light
notes: also called PUMA1-IgG3; PUMA 1 IgG3; not shown: human kappa light chain constant region (vector pFUSE2-CLIg-hk)
binding result [2]: no binding

B9: PUMA 1 human IgG2-04 isoallotype (antibody)
heavy: B2 heavy
light: B2 light
notes: Isoallotype named in CLM-00007; not shown: human IgG2 heavy chain constant region, isoallotype IGHG2*04; human kappa light chain constant region (vector pFUSE2-CLIg-hk)
binding result [1]: binds | binding result [2]: no binding

B10: PUMA 1 human IgG2-06 isoallotype (antibody)
heavy: B2 heavy
light: B2 light
notes: Isoallotype named in CLM-00007; not shown: human IgG2 heavy chain constant region, isoallotype IGHG2*06; human kappa light chain constant region (vector pFUSE2-CLIg-hk)
binding result [1]: binds | binding result [2]: no binding

B12: PUMA 1 human IgG3-06 isoallotype (antibody)
heavy: B2 heavy
light: B2 light
notes: Isoallotype named in CLM-00007; also called PUMA1-IgG3-6; not shown: human IgG3 heavy chain constant region, isoallotype IGHG3*06; human kappa light chain constant region (vector pFUSE2-CLIg-hk)
binding result [1]: binds | binding result [2]: no binding
